The results in this text go back to US20230312754A1 (published 2023).

Test [1] has as its target T1, human CEACAM5 (R&D Systems #4128-CM-050) (human, UniProt P06731 35-685).
T1 construct: Bought protein; also called hCEACAM-5; Human CEACAM5-His
T1 sequence (looked up): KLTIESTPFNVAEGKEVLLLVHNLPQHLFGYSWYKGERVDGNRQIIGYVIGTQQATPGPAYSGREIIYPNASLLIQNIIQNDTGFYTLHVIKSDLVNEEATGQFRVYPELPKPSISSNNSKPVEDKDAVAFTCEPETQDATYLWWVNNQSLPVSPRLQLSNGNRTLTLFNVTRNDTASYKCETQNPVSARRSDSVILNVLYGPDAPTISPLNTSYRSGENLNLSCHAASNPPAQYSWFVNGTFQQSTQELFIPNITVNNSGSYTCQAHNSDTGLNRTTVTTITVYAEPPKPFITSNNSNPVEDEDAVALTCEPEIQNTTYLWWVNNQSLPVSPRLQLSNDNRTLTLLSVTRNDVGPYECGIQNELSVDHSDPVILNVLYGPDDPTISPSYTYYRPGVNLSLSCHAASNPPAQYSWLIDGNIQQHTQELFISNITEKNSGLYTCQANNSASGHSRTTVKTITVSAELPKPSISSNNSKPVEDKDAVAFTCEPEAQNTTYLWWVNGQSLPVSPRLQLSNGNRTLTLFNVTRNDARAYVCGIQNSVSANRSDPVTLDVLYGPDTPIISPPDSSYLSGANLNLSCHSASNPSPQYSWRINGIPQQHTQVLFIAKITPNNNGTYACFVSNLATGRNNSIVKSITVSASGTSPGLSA
Kind of test: dual target ELISA: coated hCEACAM-5, detection with biotinylated hCD40-muIg. On the procedure:
96-well plates were coated with 0.5 μg/mL antigen, hCEACAM-1 (2244-CM-050, R&D Systems), hCEACAM-5 (4128-CM-050, R&D Systems), hCEACAM-6 (3934-CM-050, R&D Systems) or CEACAM-8 (9639-CM-050, R&D Systems) in PBS over night at 4° C. After washing in PBS/0.05% Tween 20 (PBST), the plates were blocked with PBST, 2% BSA for at least 30 minutes at room temperature before a second round of washing. RUBY bsAbs, diluted in PBST, 0.5% BSA, were then added and allowed to bind for at least 1 hour at room temperature. […] Finally, a final round of washing was performed and bound complexes detected using SuperSignal Pico Luminescent as substrate and luminescence signals were measured using Fluostar Optima.
(In an ELISA, binding on a coated surface is turned into a signal by an enzyme label.)

Test [2] has as its target T2, biotinylated human CD40-mouse Fc (Ancell #504-030) (human, UniProt P25942 21-193, biotinylated).
T2 construct: Bought protein; also called biotinylated hCD40-muIg; CD40mFc-biotin; not shown: mouse Fc (muIg) part
The test can be described thus: Octet (BLI), bsAb in solution, captured CD40mFc-biotin, 1:1 fit. On the procedure:
Kinetic measurements were performed in the Octet RED96 platform using several different setups. […] Monomeric human CD40-His-Avi tag (Acro Biosystems #CD0-H5228), monomeric Human CEACAM5-His (R&D Systems #4128-CM-050) or monomeric Cynomolgus CEACAM5-His (Sino Biological #90891-C08H) were ½ serially diluted in 1× kinetic buffer (Sartorius) starting at 500 nM or 100 nM. Bispecific antibodies were 2 serially diluted starting at 50 nM, 25 nM or 10 nM or 1/1.5 serially diluted starting at 15 nM or 5 nM. Binding kinetics was studied in 1× kinetic buffer where association was allowed for 100 sec, 300 sec or 600 sec followed by dissociation for 100 sec, 300 sec or 3600 sec. Sensor tips were regenerated with 10 mM Glycine pH 1.7. Data generated were referenced by subtracting blank or parallel buffer blank, the baseline was aligned to the y-axis, inter-step correction by alignment against dissociation was performed and the data was smoothed by Savitzky-Golay filter in the data analysis software (v9.0.0.14). The processed data was fitted using a 1:1 Langmuir binding model with R² or X² as a measurement of fitting accuracy.
TABLE 12 Summary of kinetic profiles measured in Octet. Bispecific antibodies in solution (25-0.8 nM, 10-2 or 5-0.7 nM.) interacting with captured CD40mFc-biotin. Association was measured for 300 sec or 600 sec and dissociation was measured for 300 sec or 3600 sec
(In general: Biolayer interferometry detects binding as a change in optical thickness at a sensor tip.)

T2 sequence (P25942 21-193 limits assumed): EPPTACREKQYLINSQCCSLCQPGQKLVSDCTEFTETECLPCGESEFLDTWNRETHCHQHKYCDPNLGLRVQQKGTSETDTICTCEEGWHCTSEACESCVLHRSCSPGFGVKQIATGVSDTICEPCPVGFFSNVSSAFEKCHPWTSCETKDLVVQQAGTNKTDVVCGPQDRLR

B1: Multi40 (bispecific antibody)
heavy 1: not shown
light: DIQMTQSPSSLSASVGDRVTITCRASQSISSYLNWYQEKPGKAPKLLIYAASSLQSGVPSRFSGSGSGTDFTLTISSLQPEDFATYYCQQSSHGPLLTFGQGTKLEIKRTVAAPSVFIFPPSDEQLKSGTASVVCYLNNFYPREAKVQWKVDNALQSGNSQESVTEQDSKDSTYSLWSTLTLSKADYEKHKVYACEVTHQGLSSPVTKSFNRGEC
heavy 2: EVQLLESGGGLVQPGGSLRLSCAASGFTFSTYGMHWVREAPGKGLEWLSYISGGSSYIFYADSVKGRFTISRDNSKNTLYLQMNSLRAEDTAVYYCARILRGGSGMDLWGQGTLVTVSSASTKGPSVFPLAPSSKSTSGGTAALGCLVKDYFPEPVTVSWNSGALTSGVHTFPAVLQSSGLYSLTSVVEVPSSSLGTQTYICNVNHKPSNTKVDKKVEPKSC
notes: CEACAM5xCD40, Optimized RUBY format; copies: 2 + 2 + 2
Turning to B1, in test [1], the binding result is recorded as “binds”.

B2: AC_05293 (bispecific antibody, V domains shown)
VH 1: EVQLLESGGGLVQPGGSLRLSCAASGFTFSSYAMSWVRQAPGKGLEWVSGIGSYGGGTYYADSVKGRFTISRDNSKNTLYLQMNSLRAEDTAVYYCARYVNFGMDYWGQGTLVTVSS
VL 1: DIQMTQSPSSLSASVGDRVTITCRASQSISSYLNWYQQKPGKAPKLLIYAASSLQSGVPSRFSGSGSGTDFTLTISSLQPEDFATYYCQQYGRNPPTFGQGTKLEIK
VL 2: ELVMTQSPSSLTVTAGEKVTMSCKSSQSLLNSGNQKNYLTWYQQKPGQPPKLLIYWASTRESGVPDRFTGSGSGTDFTLTISSVQAEDLAVYYCQNDYSYPLTFGAGTKLEIK
VH 2: EVQLLEQSGAELVRPGTSVKISCKASGYAFTNYWLGWVKQRPGHGLEWIGDIFPGSGNIHYNEKFKGKATLTADKSSSTAYMQLSSLTFEDSAVYFCARLRNWDEPMDYWGQGTTVTVSS
As to B2, in test [2], the affinity, expressed as Kd, was 76 nM; the koff (as a rule, the first-order rate constant of dissociation) is 0.00062 s⁻¹; the kon (in general, the second-order rate constant of association) was found to be 8300 M⁻¹ s⁻¹.

B3: AC_05300 (bispecific antibody, V domains shown)
VH 1: EVQLLEQSGAELVRPGTSVKISCKASGYAFTNYWLGWVKQRPGHGLEWIGDIFPGSGNIHYNEKFKGKATLTADKSSSTAYMQLSSLTFEDSAVYFCARLRNWDEPMDYWGQGTTVTVSS
VL 1: ELVMTQSPSSLTVTAGEKVTMSCKSSQSLLNSGNQKNYLTWYQQKPGQPPKLLIYWASTRESGVPDRFTGSGSGTDFTLTISSVQAEDLAVYYCQNDYSYPLTFGAGTKLEIK
VL 2: DIQMTQSPSSLSASVGDRVTITCRASQSISSYLNWYQQKPGKAPKLLIYAASSLQSGVPSRFSGSGSGTDFTLTISSLQPEDFATYYCQQYGRNPPTFGQGTKLEIK
VH 2: EVQLLESGGGLVQPGGSLRLSCAASGFTFSSYAMSWVRQAPGKGLEWVSGIGSYGGGTYYADSVKGRFTISRDNSKNTLYLQMNSLRAEDTAVYYCARYVNFGMDYWGQGTLVTVSS
With B3, in test [2], the Kd (in general, a measure of binding affinity in units of concentration) amounted to 8.5 nM; the koff is 0.0046 s⁻¹; the kon was determined as 540000 M⁻¹ s⁻¹.
